This assay addresses T1, Ubc9 (wild type) (UniProt P63279 1-158).
T1 construct: Ubc9, the single SUMO conjugating enzyme (E2); the crystal structure PDB 2GRN chain a served as its model; Uniformly 15N-labelled for NMR; also called WT Ubc9; Ubc9WT; source: recombinant, purified (Ni-NTA chromatography, gel filtration)
The assay can be described thus: ITC; 2 μl additions of peptide to 200 μl of WT Ubc9 or Ac-Ubc9K65; 25 °C; pH 8.0, 20 mM potassium phosphate, 100 mM NaCl; iTC200; fitted assuming 1:1 binding stoichiometry. Conditions: both partners purified.

T1 sequence (P63279 whole entry): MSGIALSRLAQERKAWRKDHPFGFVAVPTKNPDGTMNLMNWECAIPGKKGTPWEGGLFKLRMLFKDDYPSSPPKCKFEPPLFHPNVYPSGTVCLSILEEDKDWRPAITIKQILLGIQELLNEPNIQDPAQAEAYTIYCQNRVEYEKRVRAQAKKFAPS

B1: CBP NDSM peptide (peptide)
chain: VKVEVKEEEESSSN
modifications: Synthetic peptide; true ends and caps are only in Figure 1A. Limits used here are the Psi-K-x-E core through x10 (x1-x10 = VKEEEESSSN, Supplementary Table 1), around sumoylation site K1056
B1: the Kd was found to be 57 µM.

(Values after paper PMC5727262 (Scientific Reports, 2017).)
